Experimental data published in US20090028889A1, “Novel Polypeptide Ligands For Toll-Like Receptor 2 (TLR2)” (VAXINNATE CORPORATION, priority 2005, published 2009).

molecular target: T1, TLR2 (Homo sapiens, UniProt O60603); assay: not given; conditions: cited from earlier work
Target sequence in this assay (O60603 21-784, species assumed): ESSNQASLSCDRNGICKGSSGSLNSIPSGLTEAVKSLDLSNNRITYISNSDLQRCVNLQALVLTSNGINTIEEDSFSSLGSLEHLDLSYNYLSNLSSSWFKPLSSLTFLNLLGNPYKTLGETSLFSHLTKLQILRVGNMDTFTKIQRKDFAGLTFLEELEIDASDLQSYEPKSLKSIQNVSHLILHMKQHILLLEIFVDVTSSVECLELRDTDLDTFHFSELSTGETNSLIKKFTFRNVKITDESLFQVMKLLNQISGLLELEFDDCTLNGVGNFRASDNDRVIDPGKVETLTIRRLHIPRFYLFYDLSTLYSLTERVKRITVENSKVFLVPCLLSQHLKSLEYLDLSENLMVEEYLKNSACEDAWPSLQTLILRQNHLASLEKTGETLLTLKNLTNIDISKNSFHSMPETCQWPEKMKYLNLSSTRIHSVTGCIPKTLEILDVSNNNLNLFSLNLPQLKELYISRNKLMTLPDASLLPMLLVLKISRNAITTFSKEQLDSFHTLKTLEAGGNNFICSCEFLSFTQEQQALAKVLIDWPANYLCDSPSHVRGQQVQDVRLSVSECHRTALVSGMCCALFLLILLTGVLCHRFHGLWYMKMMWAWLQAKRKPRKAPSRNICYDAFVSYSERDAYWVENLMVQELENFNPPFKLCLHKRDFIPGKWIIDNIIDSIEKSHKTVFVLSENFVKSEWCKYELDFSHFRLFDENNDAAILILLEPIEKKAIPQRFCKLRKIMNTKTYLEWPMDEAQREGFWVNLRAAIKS

**Q.** With ALTTE as the substance, how does the “activation of monocytes and epithelial cells via TLR2 signaling” value read?
**A.** activate monocytes and epithelial cells via TLR2 signaling

molecular target: T1, TLR2; assay: NF-κB-dependent luciferase reporter assay, parental 293 vs 293.hTLR2 cells; format: cell-based; set-up: host or cells: HEK293 (293.luc, stably carrying κB-LUC reporter); conditions: 293.hTLR2 vs parental 293 cells, four to five hours at 37° C.
Experimental: NF-κB-dependent luciferase reporter assay: Parental 293 cells and 293.hTLR2 cells (see Example 1, above) were incubated with an aliquot of test peptide four to five hours at 37° C. NF-κB-dependent luciferase activity was measured using the Steady-Glo Luciferase Assay System by Promega (E2510), following the manufacturer's instructions. Luminescence was measured on a microplate luminometer (FARCyte, Amersham) and expressed as relative luminescence units (RLU) after subtracting the background reading obtained by exposing cells to the DMEM medium alone.
The biological activity of the TLR2-binding peptides isolated by the screening method was confirmed using the isolated peptides in an NF-κB-dependent reporter gene assay. For this assay, a synthetic monomer of the DPDSG motif (SEQ ID NO: 5), or a concatemerized copy (DPDSG)5, was incubated on parental HEK293 cells containing an NF-κB-dependent luciferase reporter construct (293) and on TLR2-overexpressing HEK293 cells containing an NF-κB-dependent luciferase reporter construct (293.hTLR2, see Example 1, above). Luciferase activity was then measured. […] Thus, the TLR2-binding peptides identified by the screening assay are functional peptide TLR2 ligands.
Target sequence in this assay (O60603 21-784): as the sequence (O60603 21-784, species assumed) above

**Q.** Which “luciferase reporter gene expression” value does the source give for “(DPDSG)5: concatemerized copy of the DPDSG motif, made by solid phase synthesis (DPDSGDPDSGDPDSGDPDSGDPDSG)” here?
**A.** activated luciferase reporter gene expression in a TLR2-dependent manner

**Q.** Which “luciferase reporter gene expression” value does the source give for “DPDSG: peptide TLR2 ligand from phage display; also made as synthetic monomer” here?
**A.** activated luciferase reporter gene expression in a TLR2-dependent manner

molecular target: human TLR2 (hTLR2) (human) (UniProt O60603); assay: T7 phage display biopanning, 4 rounds, on 293.hTLR2 cells after negative panning on parental HEK293; percent of 109 sequenced clones; conditions: not given
Sequence (O60603 21-784 limits assumed): as the sequence (O60603 21-784, species assumed) above

**Q.** With ACGVY (T7 phage-displayed peptide) as the substance, how does the % ABUNDANCE read?
**A.** 0.92%

**Q.** For ADTHQ (T7 phage-displayed peptide), which % ABUNDANCE is on record?
**A.** 0.9%

**Q.** With AGCFS (T7 phage-displayed peptide) as the substance, how does the % ABUNDANCE read?
**A.** 0.92%

**Q.** For AVRLS (T7 phage-displayed peptide), which % ABUNDANCE is on record?
**A.** 0.92%

**Q.** With AWAGT (T7 phage-displayed peptide) as the substance, how does the % ABUNDANCE read?
**A.** 0.9%

**Q.** With CGPKL (T7 phage-displayed peptide) as the substance, how does the % ABUNDANCE read?
**A.** 0.92%

**Q.** For CVWLQ (T7 phage-displayed peptide), which % ABUNDANCE is on record?
**A.** 0.9%

**Q.** For EVCAP (T7 phage-displayed peptide), which % ABUNDANCE is on record?
**A.** 0.92%

**Q.** With FCGLG (T7 phage-displayed peptide) as the substance, how does the % ABUNDANCE read?
**A.** 0.92%

**Q.** Which % ABUNDANCE does the source give for GGKLS (T7 phage-displayed peptide) here?
**A.** 0.92%

**Q.** Which % ABUNDANCE does the source give for GPLLH (T7 phage-displayed peptide) here?
**A.** 0.9%

**Q.** For HLLPG (T7 phage-displayed peptide), which % ABUNDANCE is on record?
**A.** 0.9%

**Q.** Which % ABUNDANCE does the source give for IGRFR (T7 phage-displayed peptide) here?
**A.** 2.7%

**Q.** With IHVVP (T7 phage-displayed peptide) as the substance, how does the % ABUNDANCE read?
**A.** 0.9%

**Q.** With IMRHP (T7 phage-displayed peptide) as the substance, how does the % ABUNDANCE read?
**A.** 0.92%

**Q.** For IMWFP (T7 phage-displayed peptide), which % ABUNDANCE is on record?
**A.** 0.9%

**Q.** Which % ABUNDANCE does the source give for IYKLA (T7 phage-displayed peptide) here?
**A.** 0.9%

**Q.** With KCQSF (T7 phage-displayed peptide) as the substance, how does the % ABUNDANCE read?
**A.** 0.92%

**Q.** Which % ABUNDANCE does the source give for KGWF (T7 phage-displayed peptide) here?
**A.** 0.9%

**Q.** With KYMPH (T7 phage-displayed peptide) as the substance, how does the % ABUNDANCE read?
**A.** 0.9%

**Q.** Which % ABUNDANCE does the source give for LRQGR (T7 phage-displayed peptide) here?
**A.** 0.9%

**Q.** Which % ABUNDANCE does the source give for MFGVP (T7 phage-displayed peptide) here?
**A.** 0.9%

**Q.** With MGTLP (T7 phage-displayed peptide) as the substance, how does the % ABUNDANCE read?
**A.** 1.8%

**Q.** Which % ABUNDANCE does the source give for MISS (T7 phage-displayed peptide) here?
**A.** 0.92%

**Q.** For MRRIL (T7 phage-displayed peptide), which % ABUNDANCE is on record?
**A.** 0.92%

**Q.** Which % ABUNDANCE does the source give for NPPTT (T7 phage-displayed peptide) here?
**A.** 0.92%

**Q.** For NRFGL (T7 phage-displayed peptide), which % ABUNDANCE is on record?
**A.** 0.92%

**Q.** With NRTVF (T7 phage-displayed peptide) as the substance, how does the % ABUNDANCE read?
**A.** 0.92%

**Q.** For NYRRW (T7 phage-displayed peptide), which % ABUNDANCE is on record?
**A.** 0.9%

**Q.** For PESGV (T7 phage-displayed peptide), which % ABUNDANCE is on record?
**A.** 0.92%

**Q.** For RGGF (T7 phage-displayed peptide), which % ABUNDANCE is on record?
**A.** 0.92%

**Q.** Which % ABUNDANCE does the source give for RGGSK (T7 phage-displayed peptide) here?
**A.** 3.67%

**Q.** For RVVAP (T7 phage-displayed peptide), which % ABUNDANCE is on record?
**A.** 0.9%

**Q.** For SGGLF (T7 phage-displayed peptide), which % ABUNDANCE is on record?
**A.** 0.92%

**Q.** Which % ABUNDANCE does the source give for SHIAL (T7 phage-displayed peptide) here?
**A.** 0.9%

**Q.** For SRHGR (T7 phage-displayed peptide), which % ABUNDANCE is on record?
**A.** 0.92%

**Q.** Which % ABUNDANCE does the source give for THKPK (T7 phage-displayed peptide) here?
**A.** 0.9%

**Q.** For VGKND (T7 phage-displayed peptide), which % ABUNDANCE is on record?
**A.** 0.9%

**Q.** For VSEGV (T7 phage-displayed peptide), which % ABUNDANCE is on record?
**A.** 3.67%
